Laboratory results as given in paper PMC3609069 (Prion, 2012).

Target: the molecule itself
Assay: […], pH 6.6

B1: Nup100f-Trp-7xHis (WT) (domain or fragment)
chain: GVFGQNNNQMQINGNNNNSLFGKANTFSNSASGGLFGQNNQQQGSGLFGQNSQTSGSSGLFGQNNQKQPNTFTQSNTGIGLFGQNNNQQQQSTGLFGAKPA
binding result: binds
